Laboratory results as given in patent publication US20130164256A1 (AbbVie / Abbott, published 2013).

Columns and labels:
Rhesus/Macaque TNF [1] = target: Rhesus/Macaque TNF (Rhesus/Macaque, UniProt P48094 77-233); experiment: cell-based or functional assay
Rhesus/Macaque TNF [2] = target: Rhesus/Macaque TNF (rhesus/macaque, UniProt P48094 77-233); experiment: cell-based or functional assay
Chain of Rhesus/Macaque TNF (rhesus/macaque, UniProt P48094 77-233) (P48094 77-233 limits assumed): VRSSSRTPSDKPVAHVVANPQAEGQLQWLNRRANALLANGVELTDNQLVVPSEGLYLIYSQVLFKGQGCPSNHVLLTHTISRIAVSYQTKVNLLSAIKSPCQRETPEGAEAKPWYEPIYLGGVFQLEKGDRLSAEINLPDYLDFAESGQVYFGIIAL

Chain of Rhesus/Macaque TNF (Rhesus/Macaque, UniProt P48094 77-233) (P48094 77-233 limits assumed): as above

| Binder | rhesus TNF neutralization IC50 (Rhesus/Macaque TNF [1]) | rhesus TNF neutralization IC50 (L929 bioassay) (Rhesus/Macaque TNF [2]) |
| --- | --- | --- |
| hMAK199-AM5 (antibody, V domains shown) VH: EVQLVQSGAEVKKPGASVKVSCKASGYTFRNYGIIWVRQAPGQGLEWMGWINTYTGKPTYAQKFQGRVTMTTDTSTSTAYMELSSLRSEDTAVYFCARKLFTTVDVTDNAMDYWGQGTTVTVSS VL: DIQMTQSPSSLSASVGDRVTITCRASQDISNYLNWYQQKPGKAPKLLIYYTSRLQSGVPSRFSGSGSGTDYTLTISSLQPEDFATYFCQQGNTWPPTFGQGTKLEIK | 0.02 nM | – |
| hMAK199-AM2 (antibody, V domains shown) VH: EVQLVQSGAEVKKPGASVKVSCKASGYTFNNYGIIWVRQAPGQGLEWMGWINTYTGKPTYAQKLQGRVTMTTDTSTSTAYMELSSLRSEDTAVYFCARKLFNTVDVTDNAMDYWGQGTTVTVSS VL: DIQMTQSPSSLSASVGDRVTITCRASQDISNYLNWYQQKPGKAPKLLIYYTSRLQSGVPSRFSGSGSGTDYTLTISSLQPEDFATYFCQQGNSWPPTFGQGTKLEIK | 0.01 nM | – |
| hMAK199-AM3 (antibody, V domains shown) VH: EVQLVQSGAEVKKPGASVKVSCKASGYTFNNYGIIWVRQAPGQGLEWMGWINTYTGVPTYAQKFQGRVTMTTDTSTSTAYMELSSLRSEDTAVYYCARKLFNTVDVTDNAMDYWGQGTTVTVSS VL: DIQMTQSPSSLSASVGDRVTITCRASQDIYNYLNWYQQKPGKAPKLLIYYTSRLQSGVPSRFSGSGSGTDYTLTISSLQPEDFATYFCQQGNTQPPTFGQGTKLEIK | 0.019 nM | – |
| hMAK199-AM4 (antibody, V domains shown) VH: EVQLVQSGAEVKKPGASVKVSCKASGYTFNNYGIIWVRQAPGQGLEWMGWINTYTGKPTYAQKFQGRVTMTTDTSTSTAYMELSSLRSEDTAVYYCARKLFNTVAVTDNAMDYWGQGTTVTVSS VL: DIQMTQSPSSLSASVGDRVTITCRASQDIENYLNWYQQKPGKAPKLLIYYTSRLQSGVPSRFSGSGSGTDFTLTISSLQPEDFATYFCQQGNTQPPTFGQGTKLEIK | 0.005 nM | – |
| hMAK195-AM20 (antibody, V domains shown) VH: EVQLVESGGGLVQPGGSLRLSCAASGFTFSNYGVTWVRQAPGKGLEWVSMIWADGSTHYASSVKGRFTISRDNSKNTLYLQMNSLRAEDTAVYYCAREWQHGPVAYWGQGTLVTVSS VL: DIQMTQSPSSLSASVGDRVTITCKASQLVSSAVAWYQQKPGKAPKLLIYWASTRHTGVPSRFSGSGSGTDFTLTISSLQPEDFATYYCQQHYSTPFTFGQGTKLEIKR | – | 0.596 nM |
| hMAK195-AM19 (antibody, V domains shown) VH: EVQLVESGGGLVQPGGSLRLSCAASGFTFSNYGVSWVRQAPGKGLEWVSMIWADGSTHYASSLKGRFTISRDNSKNTLYLQMNSLRAEDTAVYYCAREWQHGPAAYWGQGTLVTVSS VL: DIQMTQSPSSLSASVGDRVTITCKASQAVSSAVAWYQQKPGKAPKLLIYWASTRHTGVPSRFSGSGSGTDFTLTISSLQPEDFATYYCQQHYSTPFTFGQGTKLEIKR | – | 1.21 nM |
| hMAK195-AM23 (antibody, V domains shown) VH: EVQLVESGGGLVQPGGSLRLSCAASGFTFSNYGVTWVRQAPGKGLEWVSMIWADGSTHYADSVKSRFTISRDNSKNTLYLQMNSLRAEDTAVYYCAREWQHGPLAYWGQGTLVTVSS VL: DIQMTQSPSSLSASVGDRVTITCRASQLVSSAVAWYQQKPGKAPKLLIYWASTLHSGVPSRFSGSGSGTDFTLTISSLQPEDFATYYCQQHYSTPFTFGQGTKLEIKR | – | 2.63 nM |
| hMAK195-AM13 (antibody, V domains shown) VH: EVQLVESGGGLVQPGGSLRLSCAASGFTFSNYGVSWVRQAPGKGLEWVSLIRGDGSTDYASSLKGRFTISRDNSKNTLYLQMNSLRAEDTAVYYCAREWHHGPVAYWGQGTLVTVSS VL: DIQMTQSPSSLSASVGDRVTITCKASQAVSSAVAWYQQKPGKAPKLLIYWASTRHTGVPSRFSGSGSGTDFTLTISSLQPEDFATYYCQQHYSTPFTFGQGTKLEIKR | – | 4.64 nM |
| hMAK195-AM22 (antibody, V domains shown) VH: EVQLVESGGGLVQPGGSLRLSCAASGFTFSNYGVTWVRQAPGKGLEWVSMIWADGSTHYASSVKGRFTISRDNSKNTLYLQMNSLRAEDTAVYYCAREWQHGPVAYWGQGTLVTVSS VL: DIQMTQSPSSLSASVGDRVTITCRASQLVSSAVAWYQQKPGKAPKLLIYWASTRHSGVPSRFSGSGSGTDFTLTISSLQPEDFATYYCQQHYRTPFTFGQGTKLEIKR | – | 0.271 nM |
| hMAK195-AM21 (antibody, V domains shown) VH: EVQLVESGGGLVQPGGSLRLSCAASGFTFSNYGVTWVRQAPGKGLEWVSMIWADGSTHYASSVKGRFTISRDNSKNTLYLQMNSLRAEDTAVYYCAREWQHGPVAYWGQGTLVTVSS VL: DIQMTQSPSSLSASVGDRVTITCRASQLVSSAVAWYQQKPGKAPKLLIYWASARHTGVPSRFSGSGSGTDFTLTISSLQPEDFATYYCQQHYKTPFTFGQGTKLEIKR | – | 0.09 nM |
| hMAK195-AM26 (antibody, V domains shown) VH: EVQLVESGGGLVQPGGSLRLSCAASGFTFSNYGVSWVRQAPGKGLEWVSMIWADGSTHYADTVKGRFTISRDNSKNTLYLQMNSLRAEDTAVYYCAREWQHGPLAYWGQGTLVTVSS VL: DIQMTQSPSSLSASVGDRVTITCRASQLVSSAVAWYQQKPGKAPKLLIYWASTRHTGVPSRFSGSGSGTDFTLTISSLQPEDFATYYCQQHYRTPFTFGQGTKLEIKR | – | 0.249 nM |
| hMAK195-AM11 (antibody, V domains shown) VH: EVQLVESGGGLVQPGGSLRLSCAASGFTFSNYGVNWVRQAPGKGLEWVSMIAADGFTDYASSVKGRFTISRDNSKNTLYLQMNSLRAEDTAVYYCAREWHHGPVAYWGQGTLVTVSS VL: DIQMTQSPSSLSASVGDRVTITCKASQAVSSAVAWYQQKPGKAPKLLIYWASTRHTGVPSRFSGSGSGTDFTLTISSLQPEDFATYYCQQHYSTPFTFGQGTKLEIKR | – | > 25 nM |
| hMAK195-AM24 (antibody, V domains shown) VH: EVQLVESGGGLVQPGGSLRLSCAASGFTFSNYGVEWVRQAPGKGLEWVSGIWADGSTHYADTVKSRFTISRDNSKNTLYLQMNSLRAEDTAVYYCAREWQHGPVAYWGQGTLVTVSS VL: DIQMTQSPSSLSASVGDRVTITCKASQLVSSAVAWYQQKPGKAPKLLIYWASTLHTGVPSRFSGSGSGTDFTLTISSLQPEDFATYYCQQHYRTPFTFGQGTKLEIKR | – | 0.557 nM |
| hMAK195-AM18 (antibody, V domains shown) VH: EVQLVESGGGLVQPGGSLRLSCAASGFTFSNYGVTWVRQAPGKGLEWVSMIWADGSTHYASSVKGRFTISRDNSKNTLYLQMNSLRAEDTAVYYCAREWQHGPSAYWGQGTLVTVSS VL: DIQMTQSPSSLSASVGDRVTITCKASQAVSSAVAWYQQKPGKAPKLLIYWASTRHTGVPSRFSGSGSGTDFTLTISSLQPEDFATYYCQQHYSTPFTFGQGTKLEIKR | – | 0.441 nM |
| hMAK195-AM15 (antibody, V domains shown) VH: EVQLVESGGGLVQPGGSLRLSCAASGFTFSNYGVTWVRQAPGKGLEWVSMIWSDGSTDYASSVKGRFTISRDNSKNTLYLQMNSLRAEDTAVYYCAREWQHGPVAYWGQGTLVTVSS VL: DIQMTQSPSSLSASVGDRVTITCKASQAVSSAVAWYQQKPGKAPKLLIYWASTRHTGVPSRFSGSGSGTDFTLTISSLQPEDFATYYCQQHYSTPFTFGQGTKLEIKR | – | > 150 nM |
